Laboratory results published in the supplement of paper PMC10724198.
± gives the standard deviation of the averaged measurements.

Assays:
[1] = system: Saccharomyces cerevisiae; test: protein stability index of tFT-peptide fusion (C-terminal peptide) (PSI (0-1 scale)); higher = more stable (slower turnover); conditions: genetic background: wild type; temperature: 30 C
[2] = system: Saccharomyces cerevisiae; test: as above
Description: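 MPS profiling in S. cerevisiae of the tFT-X12 degron library: putative degron peptides plus stable controls, 12 aa, fused to the C-terminus of a sfGFP-mCherry timer. Cells are FACS-sorted into 8 mCherry/sfGFP bins and deep-sequenced. PSI runs from 0 (unstable) to 1 (stable). Backgrounds are wild type, das1Δ and doa10Δ at 30 °C, and wild type, das1Δ, cdc34-1 and cdc53-1 at 37 °C; 2-3 technical replicates each.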

[3] = genetic background: cdc34-1, temperature: 37 C
[4] = genetic background: cdc53-1, temperature: 37 C
[5] = genetic background: das1 deletion, temperature: 30 C
[6] = genetic background: das1 deletion, temperature: 37 C
[7] = genetic background: doa10 deletion, temperature: 30 C
[8] = genetic background: wild type, temperature: 30 C
[9] = genetic background: wild type, temperature: 37 C
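Note: PSI is a weighted mean of sequencing reads over stability bins, variants kept only with over 10 reads, mCherry proximal and sfGFP distal, peptide attached via GGGS linker.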

Sequence	protein stability index [1]	protein stability index [2, 3]	protein stability index [2, 4]	protein stability index [2, 5]	protein stability index [2, 6]	protein stability index [2, 7]	protein stability index [2, 8]	protein stability index [2, 9]
MRVCLCLMLIVN	0.238 ± 0.033	0.179 ± 0.024	0.282 ± 0.031	0.214 ± 0.018	0.372 ± 0.0069	0.143 ± 0.022	0.148 ± 0.028	0.238 ± 0.0029
YLTLAGFPLNLF	0.469 ± 0.041	0.666 ± 0.014	0.7399 ± 0.0022	0.649 ± 0.017	0.762 ± 0.0092	0.273 ± 0.0065	0.314 ± 0.017	0.531 ± 0.011
CFVFIGVGVLLG	0.376 ± 0.037	0.205 ± 0.0083	0.387 ± 0.025	0.29 ± 0.039	0.4436 ± 0.00094	0.224 ± 0.0069	0.234 ± 0.021	0.382 ± 0.014
KKNTQKKIKLSC	0.358 ± 0.011	0.629 ± 0.0068	0.733 ± 0.023	0.627 ± 0.035	0.728 ± 0.045	0.15 ± 0.032	0.171 ± 0.011	0.281 ± 0.021
PRVPILVVFCSF	0.402 ± 0.063	0.423 ± 0.013	0.452 ± 0.014	0.286 ± 0.041	0.532 ± 0.016	0.22 ± 0.0097	0.257 ± 0.02	0.463 ± 0.048
LSIALPFPVLCR	0.134 ± 0.012	0.0213 ± 0.0045	0.038 ± 0.03	0.115 ± 0.019	0.091924 ± 4.9e-05	0.0844 ± 0.017	0.0877 ± 0.025	0.0459 ± 0.011
VLCHLVLYVGDK	0.4359 ± 0.0017	0.454 ± 0.013	0.569 ± 0.022	0.383 ± 0.035	0.588 ± 0.013	0.3413 ± 0.0027	0.397 ± 0.052	0.534 ± 0.029
LAGLFICTLISC	0.254 ± 0.071	0.159 ± 0.0021	0.176 ± 0.0055	0.203 ± 0.023	0.2775 ± 0.0013	0.185 ± 0.012	0.191 ± 0.029	0.2449 ± 0.00042
RVSVNDGRRDSV	0.557 ± 0.18	0.712 ± 0.046	0.723 ± 0.016	0.652 ± 0.039	0.73 ± 0.013	0.681 ± 0.011	0.664 ± 0.015	0.707 ± 0.022
PPHPLHIPRRLA	0.226 ± 0.033	0.631 ± 0.025	0.724 ± 0.026	0.691 ± 0.02	0.743 ± 0.017	0.185 ± 0.0086	0.218 ± 0.022	0.436 ± 0.048
VEFSLYVVFFLV	0.211 ± 0.0088	0.2152 ± 0.00048	0.344 ± 0.024	0.248 ± 0.029	0.437 ± 0.028	0.0993 ± 0.013	0.109 ± 0.018	0.154 ± 0.0063
LFYATRLLFLCI	0.367 ± 0.0039	0.415 ± 0.034	0.432 ± 0.028	0.411 ± 0.053	0.5185 ± 0.0026	0.34042 ± 0.00025	0.3 ± 0.023	0.4454 ± 0.002
RRWGFRSFLVGI	0.7307 ± 0.0056	0.728 ± 0.018	0.7869 ± 0.0035	0.712 ± 0.026	0.803 ± 0.026	0.645 ± 0.041	0.647 ± 0.022	0.7579 ± 0.0061
VLDLLRHGFLWQ	0.761 ± 0.071	0.686 ± 0.051	0.736 ± 0.0032	0.706 ± 0.024	0.727 ± 0.011	0.689 ± 0.017	0.6984 ± 0.0056	0.7119 ± 0.0068
SSLGILHWRLHS	0.224 ± 0.0078	0.587 ± 0.038	0.709 ± 0.019	0.646 ± 0.011	0.7347 ± 0.0067	0.122 ± 0.022	0.14 ± 0.017	0.259 ± 0.027
FGVFLLWCVLLL	0.274 ± 0.077	0.226 ± 0.0076	0.297 ± 0.017	0.213 ± 0.023	0.339 ± 0.013	0.217 ± 0.01	0.191 ± 0.013	0.352 ± 0.075
KGSFDLPTFSLF	0.504 ± 0.095	0.726 ± 0.026	0.776 ± 0.018	0.644 ± 0.026	0.769 ± 0.011	0.613 ± 0.015	0.64 ± 0.031	0.7445 ± 0.0073
GGGVRWGVLVLG	0.474 ± 0.011	0.527 ± 0.007	0.606 ± 0.032	0.4 ± 0.035	0.599 ± 0.013	0.346 ± 0.017	0.391 ± 0.036	0.553 ± 0.012
SGGRFVLFIIAV	0.42491 ± 0.00036	0.444 ± 0.012	0.538 ± 0.048	0.376 ± 0.031	0.582 ± 0.013	0.344 ± 0.022	0.37 ± 0.023	0.535 ± 0.0051
CFLPFFIIFIFV	0.29 ± 0.0067	0.214 ± 0.006	0.177 ± 0.019	0.209 ± 0.037	0.32781 ± 3.9e-05	0.271 ± 0.0063	0.197 ± 0.031	0.301 ± 0.015

Sequence	protein stability index [1]	protein stability index [2, 3]	protein stability index [2, 4]	protein stability index [2, 5]	protein stability index [2, 6]	protein stability index [2, 7]	protein stability index [2, 8]	protein stability index [2, 9]
VFGARLFLIRLV	0.223 ± 0.0077	0.405 ± 0.059	0.519 ± 0.069	0.534 ± 0.033	0.635 ± 0.023	0.155 ± 0.027	0.14 ± 0.041	0.1767 ± 0.00049
RHCCIVPLCRVR	0.464 ± 0.045	0.491 ± 0.061	0.512 ± 0.013	0.324 ± 0.028	0.555 ± 0.028	0.285 ± 0.013	0.321 ± 0.028	0.507 ± 0.0081
CALCIGTYIRVV	0.451 ± 0.029	0.495 ± 0.01	0.503 ± 0.014	0.385 ± 0.029	0.552 ± 0.0098	0.367 ± 0.029	0.345 ± 0.048	0.501 ± 0.031
FCLSPILLLRFL	0.213 ± 0.034	0.268 ± 0.004	0.261 ± 0.012	0.355 ± 0.024	0.439 ± 0.0047	0.219 ± 0.022	0.174 ± 0.024	0.225 ± 0.012
GLLGRSRLIFYN	0.517 ± 0.088	0.721 ± 0.026	0.8063 ± 0.0023	0.661 ± 0.013	0.788 ± 0.01	0.427 ± 0.0058	0.458 ± 0.018	0.666 ± 0.0092
LFIYSVCSYYYE	0.349 ± 0.0058	0.31 ± 0.037	0.411 ± 0.053	0.269 ± 0.038	0.461 ± 0.049	0.227 ± 0.0051	0.283 ± 0.016	0.418 ± 0.068
ISLVLVVIEVQR	0.209 ± 0.027	0.0774 ± 0.045	0.285 ± 0.042	0.166 ± 0.042	0.316 ± 0.017	0.135 ± 0.0075	0.143 ± 0.024	0.249 ± 0.03
PLLALTSWLFFV	0.254 ± 0.008	0.5467 ± 0.0033	0.6521 ± 0.0011	0.586 ± 0.012	0.689 ± 0.022	0.165 ± 0.0048	0.173 ± 0.0033	0.268 ± 0.0046
LFRLPSPLLFFL	0.484 ± 0.028	0.559 ± 0.0067	0.611 ± 0.029	0.558 ± 0.025	0.6643 ± 0.0018	0.4911 ± 0.0026	0.429 ± 0.025	0.53 ± 0.016
LLSAVAHCYFIA	0.297 ± 0.019	0.595 ± 0.034	0.713 ± 0.0051	0.611 ± 0.01	0.738 ± 0.01	0.178 ± 0.013	0.191 ± 0.021	0.29 ± 0.02
VWEKGVCGRMVG	0.703 ± 0.0081	0.676 ± 0.015	0.7689 ± 0.0024	0.652 ± 0.021	0.744 ± 0.037	0.639 ± 0.012	0.6609 ± 0.0066	0.7276 ± 0.0072
SLGRYVSFLFVV	0.202 ± 0.004	0.433 ± 0.02	0.6623 ± 0.0014	0.565 ± 0.024	0.668 ± 0.024	0.106 ± 0.0061	0.0996 ± 0.016	0.153 ± 0.019
FVCSSVFVVLLF	0.45 ± 0.044	0.349 ± 0.017	0.423 ± 0.023	0.295 ± 0.029	0.4769 ± 0.001	0.264 ± 0.017	0.294 ± 0.054	0.464 ± 0.026
VLFVLFASWFPR	0.487 ± 0.0066	0.453 ± 0.023	0.4772 ± 0.002	0.375 ± 0.027	0.5458 ± 0.0053	0.3679 ± 0.0025	0.361 ± 0.024	0.529 ± 0.047
RFFLFVFFCFGF	0.436 ± 0.014	0.384 ± 0.0046	0.387 ± 0.038	0.383 ± 0.034	0.4787 ± 0.0021	0.402 ± 0.0047	0.365 ± 0.045	0.437 ± 0.013
AVVLLFIPRKLL	0.245 ± 0.079	0.472 ± 0.042	0.53 ± 0.034	0.39 ± 0.029	0.568 ± 0.014	0.148 ± 0.011	0.173 ± 0.021	0.293 ± 0.015
SLLWLYSAFVWY	0.324 ± 0.05	0.302 ± 0.012	0.409 ± 0.011	0.347 ± 0.032	0.503 ± 0.016	0.188 ± 0.027	0.186 ± 0.023	0.386 ± 0.069
FVRVFMASIIWC	0.452 ± 0.0082	0.478 ± 0.032	0.487 ± 0.034	0.395 ± 0.029	0.508 ± 0.024	0.391 ± 0.012	0.376 ± 0.036	0.518 ± 0.013
DTAFLLVVVVGR	0.373 ± 0.042	0.309 ± 0.0076	0.358 ± 0.036	0.257 ± 0.028	0.446 ± 0.017	0.213 ± 0.0084	0.232 ± 0.032	0.411 ± 0.029
